One molecule from patent US20240132589A1 can be followed below.

For assay [1], the target named is Human LILRB2 on stably transduced HEK293T cells (human) (UniProt Q8N423). Description: flow cytometry competition on HEK293T-LILRB2 cells; blocking mAb 10 µg/mL; competitor: biotinylated B2Comp2. On the technique in general: A flow cytometer gives signals particle by particle.
Assay [2] shares this target. Description: flow cytometry competition on HEK293T-LILRB2 cells; blocking mAb 0.1 µg/mL; competitor: biotinylated B2Comp1.
Assay [3] shares this target. Put plainly: flow cytometry competition on HEK293T-LILRB2 cells; blocking mAb 1 µg/mL; competitor: biotinylated B2Comp1.
For assay [4] the target is unchanged. Description: flow cytometry competition on HEK293T-LILRB2 cells; blocking mAb 10 µg/mL; competitor: biotinylated B2Comp1.
Assay [5] shares this target. Put plainly: flow cytometry competition on HEK293T-LILRB2 cells; blocking mAb 1 µg/mL; competitor: biotinylated B2Comp2.
Assay [6] shares this target. Put plainly: flow cytometry competition on HEK293T-LILRB2 cells; blocking mAb 0.1 µg/mL; competitor: biotinylated B2Comp2.
The target in assay [7] is Human LILRB2 on transiently transfected HEK293-6E cells (human) (UniProt Q8N423). Description: flow cytometry, transiently transfected HEK293-6E cells.
Human LILRB2 on transiently transfected HEK293-6E cells (human), sequence (Q8N423 22-597): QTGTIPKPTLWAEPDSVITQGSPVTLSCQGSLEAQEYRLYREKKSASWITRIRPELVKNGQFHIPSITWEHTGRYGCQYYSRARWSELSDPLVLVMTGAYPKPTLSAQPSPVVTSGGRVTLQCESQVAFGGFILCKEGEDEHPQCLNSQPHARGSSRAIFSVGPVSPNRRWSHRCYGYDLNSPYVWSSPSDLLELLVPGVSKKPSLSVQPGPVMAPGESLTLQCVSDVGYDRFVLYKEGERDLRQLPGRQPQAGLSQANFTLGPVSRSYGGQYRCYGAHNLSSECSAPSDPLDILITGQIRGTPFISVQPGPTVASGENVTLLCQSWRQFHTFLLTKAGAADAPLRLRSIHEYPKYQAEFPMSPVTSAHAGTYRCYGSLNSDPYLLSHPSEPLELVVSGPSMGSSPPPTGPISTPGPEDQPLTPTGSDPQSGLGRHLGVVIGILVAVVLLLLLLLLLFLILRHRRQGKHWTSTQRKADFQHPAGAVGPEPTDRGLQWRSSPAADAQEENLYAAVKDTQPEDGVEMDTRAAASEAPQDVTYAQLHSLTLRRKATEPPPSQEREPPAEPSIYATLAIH

Human LILRB2 on stably transduced HEK293T cells (human), sequence (Q8N423 other isoform, or with tags, fused parts or gaps limits assumed): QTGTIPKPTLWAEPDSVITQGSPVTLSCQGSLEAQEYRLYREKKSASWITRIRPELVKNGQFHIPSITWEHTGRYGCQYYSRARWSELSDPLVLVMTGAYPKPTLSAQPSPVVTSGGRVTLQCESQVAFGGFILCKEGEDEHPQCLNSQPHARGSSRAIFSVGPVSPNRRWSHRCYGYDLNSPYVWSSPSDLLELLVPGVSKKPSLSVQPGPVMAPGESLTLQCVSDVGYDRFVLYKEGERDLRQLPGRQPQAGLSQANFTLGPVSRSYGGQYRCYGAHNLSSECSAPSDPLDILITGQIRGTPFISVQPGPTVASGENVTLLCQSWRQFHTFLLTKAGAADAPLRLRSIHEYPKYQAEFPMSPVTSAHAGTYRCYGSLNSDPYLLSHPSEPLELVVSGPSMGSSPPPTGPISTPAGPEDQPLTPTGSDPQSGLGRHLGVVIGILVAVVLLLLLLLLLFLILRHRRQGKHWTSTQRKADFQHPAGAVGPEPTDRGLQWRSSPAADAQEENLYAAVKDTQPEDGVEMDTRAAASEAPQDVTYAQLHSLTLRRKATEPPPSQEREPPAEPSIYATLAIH

B1: B2Comp2 (antibody, IgG4, V domains shown)
VH: QITLKESGPTLVKPTQTLTLTCTFSGFSLNTYAMGVSWIRQPPGKALEWLASIWWNGNKYNNPSLKSRLTVTKDTSKNQVVLTMTNMDPVDTATYYCAHSRIIRFTDYVMDAWGQGTLVTVSS
VL: DIQMTQSPSSLSTSVGDRVTITCRASEDIYNDLAWYQQKPGKAPKLLIYNANSLHTGVASRFSGSGSGTDFTFTISSLQPEDVATYFCQQYYDYPLTFGQGTKLEIKR
modifications: Biotin-conjugated when used as the labelled ('hot') benchmark antibody in the binning assay. The site is not stated and is not carried by the letters.
With B1, the results for the % Blocking of B2Comp2 Binding in assay [1], in assay [5] and in assay [6] were 100%, 97% and 44%, respectively. Also, the values for the % Blocking of B2Comp1 Binding in assay [2], in assay [3] and in assay [4] were 47%, 78% and 80%, respectively. In assay [7], this molecule displayed a Bmax (MFI) of 9630 MFI.
